This is an account of results in US7070969 (UNIVERSITY OF QUEENSLAND, dated 2006).

Where a chain is given by its changes, count along the chain named.

Assay [1] has as its target T1, Human plasmin (human, UniProt P00747 97-810).
T1 construct: mature
Description: comparison of Table 3 Ki values; reference aprotinin (Willmott et al., 1995).

Assay [2] addresses T1, Human plasmin. The assay is described as follows: progress curves of S-2251 hydrolysis, 2 nM plasmin, n = 6, global fit to Eq. 1-3.
For assay [3], the target named is T1, Human plasmin. Description: progress curves of S-2251 hydrolysis, 18 nM plasmin, n = 6, global fit to Eq. 1-3.
Assay [4] addresses T1, Human plasmin. The assay is described as follows: plasmin inhibition kinetics (kinetic profile).

T1 sequence (P00747 97-810): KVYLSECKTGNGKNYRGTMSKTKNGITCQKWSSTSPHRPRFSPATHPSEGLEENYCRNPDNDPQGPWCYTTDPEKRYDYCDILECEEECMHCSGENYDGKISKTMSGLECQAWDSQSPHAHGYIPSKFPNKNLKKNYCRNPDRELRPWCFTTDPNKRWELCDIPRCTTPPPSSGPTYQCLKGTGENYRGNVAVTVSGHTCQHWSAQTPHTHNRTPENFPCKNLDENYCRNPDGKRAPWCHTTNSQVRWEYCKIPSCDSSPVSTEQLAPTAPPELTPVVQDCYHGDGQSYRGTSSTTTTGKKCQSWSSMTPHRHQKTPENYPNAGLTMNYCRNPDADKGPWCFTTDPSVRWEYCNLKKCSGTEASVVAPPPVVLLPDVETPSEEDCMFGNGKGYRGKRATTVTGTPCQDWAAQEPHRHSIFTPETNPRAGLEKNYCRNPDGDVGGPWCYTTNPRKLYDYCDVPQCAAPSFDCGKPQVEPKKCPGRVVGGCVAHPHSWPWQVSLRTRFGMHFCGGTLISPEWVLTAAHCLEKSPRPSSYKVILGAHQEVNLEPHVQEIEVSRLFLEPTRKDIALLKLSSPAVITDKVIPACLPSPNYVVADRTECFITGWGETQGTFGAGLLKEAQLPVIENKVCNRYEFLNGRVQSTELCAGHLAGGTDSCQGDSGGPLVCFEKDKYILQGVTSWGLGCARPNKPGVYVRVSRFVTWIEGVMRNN

B1: Textilinin 1 (other)
chain: KDRPDFCELPADTGPCRVRFPSFYYNPDEKKCLEFIYGGCEGNANNFITKEECESTCAA
notes: also called Txln 1
What is called Ki is a measure of affinity in units of concentration, obtained from inhibition or displacement. Lower therefore signals a stronger hold on the target. As to B1, the “fold difference of Ki against aprotinin” value with Human plasmin [1] was approximately 100 fold. The results for the Ki in the assay with Human plasmin [2] and in the assay with Human plasmin [3] were 3.5 nM and 2.6 nM, respectively.

B2: Textilinin 2 (other)
chain: B1 chain with D5E, F6L, A11P, K30Q
notes: also called Txln 2
On to B2, for which the “fold difference of Ki against aprotinin” value with Human plasmin [1] was approximately 100 fold. In addition, the Ki with Human plasmin [2] worked out at 2.2 nM; in the assay with Human plasmin [3], 2.8 nM; with Human plasmin [4] it was 2 nM.
